Assay results as given in paper PMC7409537, “CYP20-3 deglutathionylates 2-CysPRX A and suppresses peroxide detoxification during heat stress” (Life Science Alliance, 2020).
Where “and” joins values, the source holds several entries; their conditions need not be identical. Equal entries are not always repeated.

Legend:
[1] = molecular target: Cys to Ser mutant 2CPB C53S/C175S, tag-free (Arabidopsis thaliana); experiment: nonreducing SDS/PAGE (redox shift visualization); 1 μM (Fig 1) or 1.5 μM (Fig S2) recombinant 2CP incubated with/without 1 mM GSH (50 mM Tris-HCl pH 7.5, 25°C, 30 min), nonreducing SDS/PAGE, Coomassie stain (anti-GSH Western blot in Fig S2); oligomer size read from gel mobility; self-association
[2] = molecular target: the molecule itself; experiment: as above
[3] = molecular target: the molecule itself; experiment: nonreducing SDS/PAGE (redox shift visualization); 1 μM tag-free 2CP incubated with 1 mM GSH and 0.1% (vol/vol) Triton X-100 (partial denaturation), nonreducing SDS/PAGE, Coomassie stain; self-association
[4] = molecular target: the molecule itself; experiment: nonreducing SDS/PAGE (redox shift visualization); 1.5 μM 2CP^GS incubated with CYP20-3 (0-5 μM) at 42°C for 15 min, nonreducing SDS/PAGE, Coomassie stain and anti-GSH Western blot; self-association of the 2CP after the treatment
[5] = molecular target: the molecule itself; experiment: nonreducing SDS/PAGE with Western blot of plant extracts; total leaf protein extracts of Arabidopsis (WT Col-0, 2cpa, 2cpb, cyp20-3; untreated or 0, 3, 6 h post wounding), nonreducing SDS/PAGE, Western blot with anti-2CPA or anti-GSH antibody; oligomer size read from gel mobility

In the case of “Cys to Ser mutant 2CPB C53S/C175S, tag-free (enzyme)”, the stoichiometry N [1] is reported as 10.

B1: GSH-glutathionylated 2-Cys peroxiredoxin A (2CPA^GS), tag-free recombinant (enzyme, Arabidopsis thaliana)
chain: GSHMKAQADDLPLVGNKAPDFEAEAVFDQEFIKVKLSDYIGKKYVILFFYPLDFTFVCPTEITAFSDRHSEFEKLNTEVLGVSVDSVFSHLAWVQTDRKSGGLGDLNYPLISDVTKSISKSFGVLIHDQGIALRGLFIIDKEGVIQHSTINNLGIGRSVDETMRTLQALQYIQENPDEVCPAGWKPGEKSMKPDPKLSKEYFSAI
modifications: S-glutathionylated by GSH (mixed disulfide GS-S on a Cys; the discussion names the resolving Cys, CR^53)
notes: four nonnative residues (Gly, Ser, His, Met) left at the N terminus after thrombin removal of the His-tag; C53 is C119 and C175 is C241 in Q96291; source: E. coli BL21 (DE3), purified (Ni-NTA), His-tag removed with thrombin, incubated with GSH; not shown: His-tag, N-terminal, cleaved
B1 was tested, and the “stoichiometry N” value [2] was 2 and the “stoichiometry N” value [3] was 10.

B2: 2-Cys peroxiredoxin A (2CPA), tag-free recombinant, not glutathionylated (enzyme, Arabidopsis thaliana)
chain: GSHMKAQADDLPLVGNKAPDFEAEAVFDQEFIKVKLSDYIGKKYVILFFYPLDFTFVCPTEITAFSDRHSEFEKLNTEVLGVSVDSVFSHLAWVQTDRKSGGLGDLNYPLISDVTKSISKSFGVLIHDQGIALRGLFIIDKEGVIQHSTINNLGIGRSVDETMRTLQALQYIQENPDEVCPAGWKPGEKSMKPDPKLSKEYFSAI
notes: four nonnative residues (Gly, Ser, His, Met) left at the N terminus after thrombin removal of the His-tag; C53 is C119 and C175 is C241 in Q96291; also called 2-CysPRX A; 2CP isoform A; source: E. coli BL21 (DE3), purified (Ni-NTA), His-tag removed with thrombin; not shown: His-tag, N-terminal, cleaved
For B2, the “stoichiometry N” value [4] was 2.

B3: GSH-glutathionylated 2-Cys peroxiredoxin B (2CPB^GS), tag-free recombinant (enzyme, Arabidopsis thaliana)
chain: GSHMKAQADDLPLVGNKAPDFEAEAVFDQEFIKVKLSEYIGKKYVILFFYPLDFTFVCPTEITAFSDRYEEFEKLNTEVLGVSVDSVFSHLAWVQTDRKSGGLGDLNYPLVSDITKSISKSFGVLIPDQGIALRGLFIIDKEGVIQHSTINNLGIGRSVDETMRTLQALQYVQENPDEVCPAGWKPGEKSMKPDPKLSKEYFSAI
modifications: S-glutathionylated by GSH (mixed disulfide GS-S on a Cys)
notes: four nonnative residues (Gly, Ser, His, Met) left at the N terminus after thrombin removal of the His-tag; C53 is C126 and C175 is C248 in Q9C5R8; source: E. coli BL21 (DE3), purified (Ni-NTA), His-tag removed with thrombin, incubated with GSH; not shown: His-tag, N-terminal, cleaved
With B3 the “stoichiometry N” value [2] was 20 and the “stoichiometry N” value [4] was 10.

B4: 2-Cys peroxiredoxin B (2CPB), tag-free recombinant, not glutathionylated (enzyme, Arabidopsis thaliana)
chain: GSHMKAQADDLPLVGNKAPDFEAEAVFDQEFIKVKLSEYIGKKYVILFFYPLDFTFVCPTEITAFSDRYEEFEKLNTEVLGVSVDSVFSHLAWVQTDRKSGGLGDLNYPLVSDITKSISKSFGVLIPDQGIALRGLFIIDKEGVIQHSTINNLGIGRSVDETMRTLQALQYVQENPDEVCPAGWKPGEKSMKPDPKLSKEYFSAI
notes: four nonnative residues (Gly, Ser, His, Met) left at the N terminus after thrombin removal of the His-tag; C53 is C126 and C175 is C248 in Q9C5R8; also called 2-CysPRX B; 2CP isoform B; source: E. coli BL21 (DE3), purified (Ni-NTA), His-tag removed with thrombin; not shown: His-tag, N-terminal, cleaved
In the case of B4, the “stoichiometry N” value [2] is reported as 10 and 20.

B5: endogenous GSH-glutathionylated 2CPA (2CPA^GS) in Arabidopsis leaf extracts (enzyme, UniProt Q96291 66-266, looked up)
chain: KAQADDLPLVGNKAPDFEAEAVFDQEFIKVKLSDYIGKKYVILFFYPLDFTFVCPTEITAFSDRHSEFEKLNTEVLGVSVDSVFSHLAWVQTDRKSGGLGDLNYPLISDVTKSISKSFGVLIHDQGIALRGLFIIDKEGVIQHSTINNLGIGRSVDETMRTLQALQYIQENPDEVCPAGWKPGEKSMKPDPKLSKEYFSAI
modifications: S-glutathionylated (as the paper names it: 2CPA^GS)
notes: 2-Cys peroxiredoxin A (2CPA), Arabidopsis thaliana, At3g11630, endogenous plastid protein; Bands in WT extracts detected with 2CP antibody and put down to 2CPA^GS by the authors; source: endogenous, Arabidopsis (Col-0) leaf total protein extract
For B5, the “stoichiometry N” value [5] was 2.

B6: His-tagged GSH-glutathionylated 2-Cys peroxiredoxin B (His-tagged 2CPB^GS) (enzyme, Arabidopsis thaliana, UniProt Q9C5R8 73-273, looked up)
chain: KAQADDLPLVGNKAPDFEAEAVFDQEFIKVKLSEYIGKKYVILFFYPLDFTFVCPTEITAFSDRYEEFEKLNTEVLGVSVDSVFSHLAWVQTDRKSGGLGDLNYPLVSDITKSISKSFGVLIPDQGIALRGLFIIDKEGVIQHSTINNLGIGRSVDETMRTLQALQYVQENPDEVCPAGWKPGEKSMKPDPKLSKEYFSAI
modifications: S-glutathionylated by GSH (mixed disulfide GS-S on a Cys)
notes: C53 is C126 and C175 is C248 in Q9C5R8; Tagged version cloned BamHI/HindIII into pET28a; source: E. coli BL21 (DE3), purified (Ni-NTA), incubated with GSH
With B6 the “stoichiometry N” value [2] was 20 and 10.
